Results from patent publication US20030135878.
Positions count from the first letter of the chain named.

What was measured:
[1] = target: T1, Wheat alpha-amylase pI 5.23 inhibitor (spot #4), P01084
T1 chain: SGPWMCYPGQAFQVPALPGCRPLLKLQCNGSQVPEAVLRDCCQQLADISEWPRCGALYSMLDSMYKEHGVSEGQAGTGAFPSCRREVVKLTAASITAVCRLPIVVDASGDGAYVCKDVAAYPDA

[2] = target: T2, Wheat alpha-amylase pI 6.66 inhibitor (spot #1), P01085
T2 chain: T1 chain with G19A, K25R, D47H, P52C, V70A, S71Q, S82R

[3] = target: T3, Wheat alpha-amylase/trypsin inhibitor (spot #3), P16851
T3 chain: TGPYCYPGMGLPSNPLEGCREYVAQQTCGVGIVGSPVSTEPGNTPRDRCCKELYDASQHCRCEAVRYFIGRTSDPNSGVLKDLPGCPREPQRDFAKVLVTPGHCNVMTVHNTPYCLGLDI

[4] = target: wheat gliadin homolog of oat avenin (spot #2)

B1: wheat thioredoxin h (WTRXh), 13.5-kDa protein encoded by the 384-bp wtrxh fragment (protein)
chain: MAASAATATATAAAVGAGEVISVHSLEQWTMQIEEANAAKKLVVIDFTASWCGPCRIMAPIFADLAKKFPAAVFLKVDVDELKPIAEQFSVEAMPTFLFMKEGDVKDRVVGAIKEELTTKVGLHAAQ
redox state by mBBr/2D IEF/SDS-PAGE, homozygote overexpressing thioredoxin h vs. null segregant [1]: five proteins were observed to be more highly reduced in extracts of the homozygote (spots 1-5, FIG. 29) | redox state by mBBr/2D IEF/SDS-PAGE, homozygote overexpressing thioredoxin h vs. null segregant [2]: five proteins were observed to be more highly reduced in extracts of the homozygote (spots 1-5, FIG. 29) | redox state by mBBr/2D IEF/SDS-PAGE, homozygote overexpressing thioredoxin h vs. null segregant [3]: five proteins were observed to be more highly reduced in extracts of the homozygote (spots 1-5, FIG. 29) | redox state by mBBr/2D IEF/SDS-PAGE, homozygote overexpressing thioredoxin h vs. null segregant [4]: five proteins were observed to be more highly reduced in extracts of the homozygote (spots 1-5, FIG. 29)
